Data: US20120087949, “OLIGONUCLEOTIDE MICELLES” (University of Florida Research Foundation, Inc., published 2012)

How the values were obtained:
[1] = system: unidentified cell-surface target of sgc8 on CCRF-CEM cells; conditions: 5'-diacyl lipid-(PEG)4, membrane anchored; CITED; value for sgc8 aptamer; CEM cell aggregation with lipo-sgc8-TMR shown here (FIG. 13A); cited from earlier work
[2] = molecular target: T1, IGHM (immunoglobulin heavy mu chain), on Ramos cells (UniProt P01871 P01871:1-474); test: flow; Ramos cells; based on lipid unit concentration; 0.116 nM if 1000 copies per micelle; conditions: tags: endogenous on Ramos cells (ATCC CRL-1596); chain copies: 2; label: 3'-FAM
T1 sequence (P01871 whole entry, one chain of several): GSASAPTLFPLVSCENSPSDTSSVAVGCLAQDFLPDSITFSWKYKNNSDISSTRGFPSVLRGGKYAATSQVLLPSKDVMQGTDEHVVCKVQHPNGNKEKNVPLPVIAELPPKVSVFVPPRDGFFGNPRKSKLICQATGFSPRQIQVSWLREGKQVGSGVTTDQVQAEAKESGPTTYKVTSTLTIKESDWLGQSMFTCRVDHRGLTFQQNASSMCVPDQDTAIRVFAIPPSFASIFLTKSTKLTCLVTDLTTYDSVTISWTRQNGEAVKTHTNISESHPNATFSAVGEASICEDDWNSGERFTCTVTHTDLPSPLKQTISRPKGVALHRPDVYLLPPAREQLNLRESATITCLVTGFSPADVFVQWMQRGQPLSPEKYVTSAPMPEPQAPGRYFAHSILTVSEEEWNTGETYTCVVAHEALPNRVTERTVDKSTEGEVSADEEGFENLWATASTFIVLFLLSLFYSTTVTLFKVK

[3] = molecular target: T1, IGHM (immunoglobulin heavy mu chain), …; test: flow; free TDO5 on Ramos cells; compared with micelle; elsewhere quoted as 74 nM (p179, CITED); conditions: tags: endogenous on Ramos cells (ATCC CRL-1596); chain copies: 2; label: FITC

TTTTTTTATCTAACTGCTGCGCCGCCGGGAAAATACTGTACGGTTAGA [Lipo-sgc8-TMR]
Kd [1]: 0.8 nM

AACACCGGGAGGATAGTTCGGTGGCTGTTCAGGGTCTCCTCCCGGTGA (ssDNA, 5'-diacyl lipid tail-(CH2CH2O)24; self-assembled micelle) [TDO5-micelle (lipid-TDO5)]
Kd [2]: 116 nM

AACACCGGGAGGATAGTTCGGTGGCTGTTCAGGGTCTCCTCCCGGTGA (ssDNA) [TDO5]
Kd [3]: 88 nM
